Drawing on the supplement of paper PMC10567573, this text covers protein stability index for 94 variants.

Sequences and labels used below:
B1: SLC19A2 (parent)
chain: IYPVWTYSYLVLLFPVFLATDYLR
B2: PTPRD (parent)
chain: LTKLREMGREKCHQYWPAERSARY
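Also: lentivirally expressed fusions sorted by FACS into six bins by GFP to DsRed ratio, PSI derived from sequencing read proportions per bin multiplied by bin number.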

In one data set the parent is B1. Nature of the data set: protein stability index of a GFP-peptide fusion (GPS, HEK-293T) (PSI 1-6); higher = more stable. The settings on record: c terminus: a fixed tail appended.
On to IYPVWTYSYLVLLFHVFLATDYLR [P15H], for which the protein stability index worked out at 2.75. Still for that read-out and setting: the result for IYPVWTYSYLVLLFNVFLATDYLR [P15N] reads 2.11.

IYPVWTYSYLVLLFLVFLATDYLR [P15L]: the protein stability index is 2.41. In the case of IYPVWTYSYLVLLFMVFLATDYLR [P15M], the protein stability index turned out to be 3.22. Same read-out and setting: the result for IYPVWTYSYLVLLFQVFLATDYLR [P15Q] reads 3.38; that for IYPVWTYSYLVLLFRVFLATDYLR [P15R], 2.7. Turning to IYPVWTYSYLVLLFSVFLATDYLR [P15S], the protein stability index was 2.5. Same read-out and setting: the result for IYPVWTYSYLVLLFAVFLATDYLR [P15A] reads 3.53; that for IYPVWTYSYLVLLFGVFLATDYLR [P15G], 1.93; that for IYPVWTYSYLVLLFFVFLATDYLR [P15F], 2.95.

Consider IYPVWTYSYLVLLFCVFLATDYLR [P15C], for which the protein stability index was 3.79. Turning to IYPVWTYSYLVLLFYVFLATDYLR [P15Y], the protein stability index is 1.06. Same read-out and setting: the result for IYPVWTYSYLVLLFEVFLATDYLR [P15E] reads 3.03; that for IYPVWTYSYLVLLFWVFLATDYLR [P15W], 3.27. Still for that read-out and setting: the result for IYPVWTYSYLVLLFPVFLATDYLT [R24T] reads 1.69. Same read-out and setting: the result for IYPVWTYSYLVLLFPVFLATDYLW [R24W] reads 3.24; that for IYPVWTYSYLVLLFPVFLATDYLM [R24M], 2.99; that for IYPVWTYSYLVLLFPVFLATDYLE [R24E], 1.91. Take IYPVWTYSYLVLLFPVFLATDYLY [R24Y]: the protein stability index is 2.75. Turning to IYPVWTYSYLVLLFPVFLATDYLI [R24I], the protein stability index came to 3.43. Still for that read-out and setting: the result for IYPVWTYSYLVLLFPVFLATDYLL [R24L] reads 2.41. The same measure, in the same setting: the result for IYPVWTYSYLVLLFPVFLATDYLP [R24P] reads 1.99; that for IYPVWTYSYLVLLFPVFLATDYLC [R24C], 1.84.

For IYPVWTYSYLVLLFPVFLATDYLG [R24G], the protein stability index was 2.58. On the same count and under the same terms, the result for IYPVWTYSYLVLLFPVFLATDYLF [R24F] reads 3.56; that for IYPVWTYSYLVLLFPVFLATDYLD [R24D], 2.64. IYPVWTYSYLVLLFPVFLATDYLQ [R24Q]: the protein stability index came out at 3.46. Same read-out and setting: the result for IYPVWTYSYLVLLFPVFLATDYLN [R24N] reads 4.07; that for IYPVWTYSYLVLLFPVFLATDYLH [R24H], 2.63; that for IYPVWTYSYLVLLFPVFLATDYLK [R24K], 3.31.

On to IYPVWTYSYLVLLFPVFLATDYLA [R24A], for which the protein stability index turned out to be 2.61. Still for that read-out and setting: the result for IYPVWTYSYLVLLFPVFLATDYLS [R24S] reads 3.04. On to IYPVWTYSYLVLLGPVFLATDYLR [F14G], for which the protein stability index is 3.54. As for IYPVWTYSYLVLLYPVFLATDYLR [F14Y], the protein stability index is 2.88. The same measure, in the same setting: the result for IYPVWTYSYLVLLCPVFLATDYLR [F14C] reads 2.63; that for IYPVWTYSYLVLLMPVFLATDYLR [F14M], 4.1. Take IYPVWTYSYLVLLEPVFLATDYLR [F14E]: the protein stability index was found to be 2.74.

For IYPVWTYSYLVLLIPVFLATDYLR [F14I], the protein stability index was found to be 3.07. Still for that read-out and setting: the result for IYPVWTYSYLVLLHPVFLATDYLR [F14H] reads 3.32. On the same count and under the same terms, the result for IYPVWTYSYLVLLRPVFLATDYLR [F14R] reads 3.83; that for IYPVWTYSYLVLLVPVFLATDYLR [F14V], 2.97. On the same count and under the same terms, the result for IYPVWTYSYLVLLTPVFLATDYLR [F14T] reads 3.75. IYPVWTYSYLVLLLPVFLATDYLR [F14L]: the protein stability index came to 3.35. The same measure, in the same setting: the result for IYPVWTYSYLVLLKPVFLATDYLR [F14K] reads 1.99. Regarding IYPVWTYSYLVLLPPVFLATDYLR [F14P], the protein stability index turned out to be 2.48.

On to IYPVWTYSYLVLLQPVFLATDYLR [F14Q], for which the protein stability index was determined as 2.98.

IYPVWTYSYLVLLAPVFLATDYLR [F14A]: the protein stability index amounted to 2.08. On to IYPVWTYSYLVLLWPVFLATDYLR [F14W], for which the protein stability index was 2.47. As to IYPVWTYSYLVLLFPVFLATDYER [L23E], the protein stability index was 2.68. The same measure, in the same setting: the result for IYPVWTYSYLVLLFPVFLATDYRR [L23R] reads 3.03; that for IYPVWTYSYLVLLFPVFLATDYNR [L23N], 1.46; that for IYPVWTYSYLVLLFPVFLATDYKR [L23K], 2.22.

On to IYPVWTYSYLVLLFPVFLATDYWR [L23W], for which the protein stability index is 3.21. The same measure, in the same setting: the result for IYPVWTYSYLVLLFPVFLATDYQR [L23Q] reads 2.54; that for IYPVWTYSYLVLLFPVFLATDYGR [L23G], 3.42; that for IYPVWTYSYLVLLFPVFLATDYDR [L23D], 2.96. With IYPVWTYSYLVLLFPVFLATDYMR [L23M], the protein stability index is 3.02.

For the variant IYPVWTYSYLVLLFPVFLATDYVR [L23V], the protein stability index worked out at 2.32.

Turning to IYPVWTYSYLVLLFPVFLATDYTR [L23T], the protein stability index amounted to 2.48.

With IYPVWTYSYLVLLFPVFLATDYSR [L23S], the protein stability index was 2.62. Same read-out and setting: the result for IYPVWTYSYLVLLFPVFLATDYIR [L23I] reads 2.61; that for IYPVWTYSYLVLLFPVFLATDYHR [L23H], 2.11; that for IYPVWTYSYLVLLFPVFLATDYAR [L23A], 3.57. On the same count and under the same terms, the result for IYPVWTYSYLVLLFPVFSATDYLR [L18S] reads 3.42; that for IYPVWTYSYLVLLFPVFQATDYLR [L18Q], 2.84; that for IYPVWTYSYLVLLFPVFKATDYLR [L18K], 2.51.

As to IYPVWTYSYLVLLFPVFFATDYLR [L18F], the protein stability index is 2.3.

Turning to IYPVWTYSYLVLLFPVFMATDYLR [L18M], the protein stability index is 3.69. The same measure, in the same setting: the result for IYPVWTYSYLVLLFPVFRATDYLR [L18R] reads 4.66; that for IYPVWTYSYLVLLFPVFTATDYLR [L18T], 2.54; that for IYPVWTYSYLVLLFPVFEATDYLR [L18E], 3.06. Still for that read-out and setting: the result for IYPVWTYSYLVLLFPVFNATDYLR [L18N] reads 2.84. On the same count and under the same terms, the result for IYPVWTYSYLVLLFPVFAATDYLR [L18A] reads 2.5; that for IYPVWTYSYLVLLFPVFYATDYLR [L18Y], 2.32; that for IYPVWTYSYLVLLFPVFIATDYLR [L18I], 3.03. IYPVWTYSYLVLLFPVFDATDYLR [L18D]: the protein stability index worked out at 2.81. Same read-out and setting: the result for IYPVWTYSYLVLLFPVFPATDYLR [L18P] reads 3.1; that for IYPVWTYSYLVLLFPVFCATDYLR [L18C], 3.04; that for IYPVWTYSYLVLLFPVFGATDYLR [L18G], 3.7.

With IYPVWTYSYLVLLFPVFHATDYLR [L18H], the protein stability index was 3.99.

In a further data set the parent is B2. The data set is described as above. The settings on record: c terminus: a fixed tail appended.
MTKLREMGREKCHQYWPAERSARY [L1M]: the protein stability index was determined as 2.95. Take KTKLREMGREKCHQYWPAERSARY [L1K]: the protein stability index came to 3.36. Still for that read-out and setting: the result for FTKLREMGREKCHQYWPAERSARY [L1F] reads 1.97. On the same count and under the same terms, the result for CTKLREMGREKCHQYWPAERSARY [L1C] reads 2.42. PTKLREMGREKCHQYWPAERSARY [L1P]: the protein stability index worked out at 2.66. As to ATKLREMGREKCHQYWPAERSARY [L1A], the protein stability index stood at 2.88. Turning to NTKLREMGREKCHQYWPAERSARY [L1N], the protein stability index was 3.1. Same read-out and setting: the result for ITKLREMGREKCHQYWPAERSARY [L1I] reads 2.26; that for QTKLREMGREKCHQYWPAERSARY [L1Q], 2.87.

On to RTKLREMGREKCHQYWPAERSARY [L1R], for which the protein stability index was 2.47. For HTKLREMGREKCHQYWPAERSARY [L1H], the protein stability index came out at 2.87. Same read-out and setting: the result for DTKLREMGREKCHQYWPAERSARY [L1D] reads 3.59. Consider GTKLREMGREKCHQYWPAERSARY [L1G], for which the protein stability index was 2.47.

ETKLREMGREKCHQYWPAERSARY [L1E]: the protein stability index stood at 3.12.
